The target in this assay is SV40 large T (SV40), P03070. Nature of the assay: biotinylated row protein on streptavidin beads, 35S column protein counted. Particulars: remark: other sources report otherwise.

Data on one molecule can be found in patent US7122382.

B1: p53, P02340 1-390 (protein)
chain: MTAMEESQSDISLELPLSQETFSGLWKLLPPEDILPSPHCMDDLLLPQDVEEFFEGPSEALRVSGAPAAQDPVTETPGPVAPAPATPWPLSSFVPSQKTYQGNYGFHLGFLQSGTAKSVMCTYSPPLNKLFCQLAKTCPVQLWVSATPPAGSRVRAMAIYKKSQHMTEVVRRCPHHERCSDGDGLAPPQHLIRVEGNLYPEYLEDRQTFRHSVVVPYEPPEAGSEYTTIHYKYMCNSSCMGGMNRRPILTIITLEDSSGNLLGRDSFEVRVCACPGRDRRTEEENFRKKEVLCPELPPGSAKRALPTCTSASPPQKKKPLDGEYFTLKIRGRKRFEMFRELNEALELKDAHATEESGDSRAHSSYLKTKKGQSTSRHKKTMVKKVGPDSD
modifications: here or on the partner: 35S-methionine label or biotinylated lysine, by its role in the assay
In the case of B1, the RI (c.p.m.) amounted to 884 c.p.m.
